Residue numbers refer to the chain shown, from its start.

Assay in all cases: cell_activity; E. coli
Holding throughout (details): tags: 6-His

Data set [1] concerns the target T1, sN-TALER IV-3 (synthetic).
T1 chain: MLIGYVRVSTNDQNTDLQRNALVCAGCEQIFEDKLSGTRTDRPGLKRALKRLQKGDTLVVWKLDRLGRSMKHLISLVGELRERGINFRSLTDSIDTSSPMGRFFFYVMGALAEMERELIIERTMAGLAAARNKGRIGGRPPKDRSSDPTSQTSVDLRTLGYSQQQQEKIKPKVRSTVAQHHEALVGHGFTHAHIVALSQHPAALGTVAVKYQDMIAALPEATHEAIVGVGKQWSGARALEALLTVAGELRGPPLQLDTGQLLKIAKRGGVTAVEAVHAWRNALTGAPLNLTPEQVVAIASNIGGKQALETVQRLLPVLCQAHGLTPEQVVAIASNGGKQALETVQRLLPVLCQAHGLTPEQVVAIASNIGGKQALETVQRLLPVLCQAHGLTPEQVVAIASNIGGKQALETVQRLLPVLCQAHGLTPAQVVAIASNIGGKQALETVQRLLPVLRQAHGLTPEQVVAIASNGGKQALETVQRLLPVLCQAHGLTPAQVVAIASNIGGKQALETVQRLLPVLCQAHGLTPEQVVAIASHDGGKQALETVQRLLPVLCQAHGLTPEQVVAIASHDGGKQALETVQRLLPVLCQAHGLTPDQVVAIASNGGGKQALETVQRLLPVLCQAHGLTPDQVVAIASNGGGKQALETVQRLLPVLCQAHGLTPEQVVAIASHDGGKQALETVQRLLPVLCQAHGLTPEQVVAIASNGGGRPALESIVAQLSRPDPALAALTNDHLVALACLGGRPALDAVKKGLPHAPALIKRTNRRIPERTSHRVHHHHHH
On the procedure:
(§1) To test for recombination, E. coli DH5alpha cells were co-transformed with different combinations of TALER expression construct and TALER reporter construct pairs (Tables 6 and 7). The N-TALER expression and reporter constructs were in an approximate 1:1 mass ratio during the transformation. The co-transformed bacteria were plated on media with chloramphenicol, kanamycin, and X-gal then incubated at 37° C. for 18 to 36 hours. Control samples consisted of transformations using the reporter construct alone. Control transformants were similarly plated. The bacterial transformation protocol was either heat shock or electroporation per standard molecular biology techniques.

The target in data set [2] is T2, sN-TALER IV-2 (GinH106Y-TALE13) (synthetic).
T2 chain: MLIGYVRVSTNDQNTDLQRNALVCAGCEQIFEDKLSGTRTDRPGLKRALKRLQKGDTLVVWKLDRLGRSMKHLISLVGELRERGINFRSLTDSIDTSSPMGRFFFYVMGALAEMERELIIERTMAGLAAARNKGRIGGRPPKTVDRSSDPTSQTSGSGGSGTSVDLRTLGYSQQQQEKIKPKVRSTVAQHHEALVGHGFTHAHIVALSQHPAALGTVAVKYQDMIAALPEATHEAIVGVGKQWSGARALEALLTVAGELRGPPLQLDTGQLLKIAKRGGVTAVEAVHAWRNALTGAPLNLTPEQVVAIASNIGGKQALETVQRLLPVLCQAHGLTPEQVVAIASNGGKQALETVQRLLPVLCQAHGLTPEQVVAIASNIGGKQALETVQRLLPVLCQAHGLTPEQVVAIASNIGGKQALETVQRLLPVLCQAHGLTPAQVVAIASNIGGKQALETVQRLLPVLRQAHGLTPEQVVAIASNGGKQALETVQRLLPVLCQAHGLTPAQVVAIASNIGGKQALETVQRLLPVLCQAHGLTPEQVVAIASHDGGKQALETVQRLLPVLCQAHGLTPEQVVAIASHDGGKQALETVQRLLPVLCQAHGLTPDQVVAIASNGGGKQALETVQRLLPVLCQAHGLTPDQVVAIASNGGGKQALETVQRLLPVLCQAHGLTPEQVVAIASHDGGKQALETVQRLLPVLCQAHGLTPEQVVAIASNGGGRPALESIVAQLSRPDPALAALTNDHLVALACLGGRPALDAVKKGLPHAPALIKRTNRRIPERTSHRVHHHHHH
On the procedure: as §1

Data set [3] deals with T3, pN-TALER IV-1-EE2 (GinL7C7-EE2-TALE13) (synthetic).
T3 chain: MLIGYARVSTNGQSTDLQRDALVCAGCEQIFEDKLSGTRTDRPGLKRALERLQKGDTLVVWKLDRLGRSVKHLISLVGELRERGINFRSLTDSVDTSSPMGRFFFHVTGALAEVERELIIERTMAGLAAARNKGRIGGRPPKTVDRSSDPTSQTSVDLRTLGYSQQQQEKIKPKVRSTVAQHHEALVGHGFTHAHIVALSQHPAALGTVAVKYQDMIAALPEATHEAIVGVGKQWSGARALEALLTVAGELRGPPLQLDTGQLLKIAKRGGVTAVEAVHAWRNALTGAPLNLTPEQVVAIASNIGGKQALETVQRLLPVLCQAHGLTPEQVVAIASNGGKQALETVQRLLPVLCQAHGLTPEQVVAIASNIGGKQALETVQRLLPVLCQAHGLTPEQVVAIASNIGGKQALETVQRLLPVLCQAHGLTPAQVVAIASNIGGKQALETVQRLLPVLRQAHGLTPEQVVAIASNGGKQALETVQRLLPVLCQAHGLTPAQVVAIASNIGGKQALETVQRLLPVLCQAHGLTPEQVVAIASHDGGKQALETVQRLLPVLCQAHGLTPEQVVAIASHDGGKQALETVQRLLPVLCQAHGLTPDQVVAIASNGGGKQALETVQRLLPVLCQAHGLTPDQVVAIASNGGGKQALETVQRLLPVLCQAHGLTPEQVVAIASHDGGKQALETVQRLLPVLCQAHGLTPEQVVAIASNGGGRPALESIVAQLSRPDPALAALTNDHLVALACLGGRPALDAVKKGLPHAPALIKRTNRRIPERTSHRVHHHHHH

B1: Gin18TALE+0 (dsDNA)
DNA 1: AGAAGGTATTTATACCAAAACCATGGTTTACATATAAATACCTTCT
DNA 2: AGAAGGTATTTATATGTAAACCATGGTTTTGGTATAAATACCTTCT
As for B1, the values for the activity in data set [1], in data set [2] and in data set [3] were 2 score, 1 score and 1 score, respectively.

B2: Gin18TALE+1 (dsDNA)
DNA 1: AGAAGGTATTTATATCCAAAACCATGGTTTACAATATAAATACCTTCT
DNA 2: B2 DNA 1 with C16T, C17G, A18T, A31T, C32G, A33G
As for B2, the activity in data set [3] is 1 score.

B3: Gin20TALE+0 (dsDNA)
DNA 1: B2 DNA 1 with A34G
DNA 2: AGAAGGTATTTATACTGTAAACCATGGTTTTGGATATAAATACCTTCT
Regarding B3, the activity in data set [1], in data set [2] and in data set [3] was 1 score in each case.

The values above are taken from US20140193915, “COMPOSITIONS AND METHODS FOR CUSTOM SITE-SPECIFIC DNA RECOMBINASES” (Monsanto Technology, LLC, published 2014).
